Experiment: label from the status in PepcDB records
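Further: failed if final PepcDB status was selected cloned or expressed and not failed if soluble or beyond.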

Row | Sequence | protein production
1 | MTAGHGIAALPGTMRVFERGWLSSNNILFFDDDAHGGCALVDSGYLTHAPQTVALARHALQGRPLRRLLNTHLHADHCGGNAALQAAYGCRIRVPAAQIGDVRRWDTDALSYRPTGQQCERFTLPEGDTAEAGLADGMTARLGGLDWQVISAPGHDPHAVILYSPDTRVLLSADALWERGFGVIFPELEGESGFAEQEAILACIARLGARVVVPGHGRPFTEVDAAIDAARGRLAYLRADPERNALHALRVLVKFKLLEQQAMTREALAAWFAQASLIPRLQARFFAATPLPALLEATVAALVKAGAAAVEATRIVNRG | failed
2 | MENRIELYDSKARYGVISRGLHWAMALAFAWIYSTTSAHYLLADSALDKFLWPTHKQVGLLLMALLLVRVLWSLLNRHRRPPSLNLAATLGHGLLYAGMFAIPFLGLLRQYGSGRAFSAFGLPVMNGFDGPKIQWMTELGNNFHSLLGWTLLVLIVGHVAALILHCIKGQGHILRRMAGSARSA | failed
3 | MVIGLIATLYRPKEATLYVLLYLLLGAIGLPVFSGGNGGLHTFIGQTGGFLLFFPLRALVTSLIANRKKILIQIFIANFLGEVVLFIGGAIGFIIFTHSLILTTLKLVVLPFVLPDLIKITLTTLFSLLLLKALQSQSYFKIEK | failed
4 | MDKNILAIIFVAVGTYLIRYIPIHLHSKIKNIDEKVKEINEILIYSSTSVISALFITSFIKFPIIFSNVLISTISLIFAIVSYKKWNNLGISILISVVIYYLASKFLISI | failed
5 | MALSSAPILITGASQRVGLHCALRLLEHGHQVIISYRTEHASVAQLRQAGAHTLHGDFSSEASIMAFIEQLKSHTSSLRAIVHNASEWLAETPGDEAENFTRMFSVHMLAPYLINLHCEALLHASDVADIVHISDDVTRKGSSKHIAYCATKAGLESLTLSFAARFAPLVKVNGIAPALLMFQPKDDAAYRANALAKSAMGIEPGAEVIYQSLRYLLDSTYVTGTTLTVNGGRHVK | failed
6 | MEGDVYSGFGERYQMDGKLLQNFQKSFVQVQDILDQNRLLINEINQNHESKQADHLGRNVGLIRELNNNIRTVASLYGDLSHSFARSVDASSEGESTGTLKSDGKANNQKRFRSG | failed
7 | MEGCVSNIMICNLAYSGKLDELKERILADKSLATRTDQDSRTALHWACSAGHTEIVEFLLQLGVPVNDKDDAGWSPLHIAASAGRDEIVKALLVKGAHVNAVNQNGCTPLHYAASKNRHEIAVMLLEGGANPDAKDHYDATAMHRAAAKGNLKMVHILLFYKASTNIQDTEGNTPLHLACDEERVEEAKFLVTQGASIYIENKEEKTPLQVAKGGLGLILKRLAEGEEASM | not failed
8 | MSAVFSGGLTQAGGMSSTETVDSSAVSSGTISDYVEAMGPSWIAGAIAAGPATIASLVTAGGAFGYSLLWVVVLSAGAGALAQYLAMRLGLLTERGIVAVVEDHLGETWAWLLVGDAVLAAGVAQLVIMKTVATVSATVTGIDARIWGVVWALILAAGLAGGGYRFLELAAKILVLLVVVAFVASLFVVPIDAGAAVAGLVPSVPSGSALVAAGILGGAVHITLITMHSYTMRARGWTREDYDLATVDVGASMLVAFGIYSLAIFLVTASVLTSGDLTTVGAAEALGPLVGDSARWLFLLGLWGAAVSTLGGNTIVPPFLLADKLGWGTTIEDNRYRGLLAAVALLSAPGAFIGGNVLGQLVLVLALGTVGTPFAIALVLYLLNSAAVPESNSLLANVGGLALIAVSGGLAANFVVEQLGGGVGPLSGFVLAFAIALGLAMAGLGGKFLREELLA | failed
9 | AWGLAATGKEFLWVMRPDSVAGEEAVIPKEFLAETADRRMLTSWCPQEKVLSHPAVGGFLTHCGWNSTLESLSCGVPMVGIEIGGDVKRGEVEAVVRELMDGEKGKKMREKAVEWRRLAEKATKLPCGSSVINFETIVNKVLLGKIPNT | failed
10 | MSINLRSSGCSSPISATLERRLDSEVQTRANNVSFEQTKEKIRKMLEKVELSVSAYDTSWVAMVPSPSSQNAPLFPQCVKWLLDNQHEDGSWGLDNHDHQSLKKDVLSSTLASILALKKWGIGERQINKGLQFIELNSALVTDETIQKPTGFDIIFPGMIKYARDLNLTIPLGSEVVDDMIRKRDLDLKCDSEKFSKGREAYLAYVLEGTRNLKDWDLIVKYQRKNGSLFDSPATTAAAFTQFGNDGCLRYLCSLLQKFEAAVPSVYPFDQYARLSIIVTLESLGIDRDFKTEIKSILDETYRYWLRGDEEICLDLATCALAFRLLLAHGYDVSYDPLKPFAEESGFSDTLEGYVKNTFSVLELFKAAQSYPHESALKKQCCWTKQYLEMELSSWVKTSVRDKYLKKEVEDALAFPSYASLERSDHRRKILNGSAVENTRVTKTSYRLHNICTSDILKLAVDDFNFCQSIHREEMERLDRWIVENRLQELKFARQKLAYCYFSGAATLFSPELSDARISWAKGGVLTTVVDDFFDVGGSKEELENLIHLVEKWDLNGVPEYSSEHVEIIFSVLRDTILETGDKAFTYQGRNVTHHIVKIWLDLLKSMLREAEWSSDKSTPSLEDYMENAYISFALGPIVLPATYLIGPPLPEKTVDSHQYNQLYKLVSTMGRLLNDIQGFKRESAEGKLNAVSLHMKHERDNRSKEVIIESMKGLAERKREELHKLVLEEKGSVVPRECKEAFLKMSKVLNLFYRKDDGFTSNDLMSLVKSVIYEPVSLQEESLT | failed
11 | MKKGVLIAFEGIDGSGKSSQATLLKDWIELKRDVYLTEWNSSDWIHDIIKEAKKKDLLTPLTFSLIHATDFSDRYERYILPMLKSGFIVISDRYIYTAYARDSVRGVDIDWVKKLYSFAIKPDITFYIRVSPDIALERIKKSKRKIKPQEAGADIFPGLSPEEGFLKYQGLITEVYDKLVKDENFIVIDGTKTPKEIQIQIRKFVGELIDNSF | not failed
12 | MKKATIAATAGIAVTAFAAPTIASASTVVVEAGDTLWGIAQSKGTTVDAIKKANNLTTDKIVPGQKLQVNNEVAAAEKTEKSVSATWLNVRSGAGVDNSIITSIKGGTKVTVETTESNGWHKITYNDGKTGFVNGKYLTDKAVSTPVAPTQEVKKETTTQQAAPAAETKTEVKQTTQATTPAPKVAETKETPVVDQNATTHAVKSGDTIWALSVKYGVSVQDIMSWNNLSSSSIYVGQKLAIKQTANTATPKAEVKTEAPAAEKQAAPVVKENTNTNTATTEKKETATQQQTAPKAPTEAAKPAPAPSTNTNANKTNTNTNTNTNTNNTNTNTPSKNTNTNSNTNTNTNSNTNANQGSSNNNSNSSASAIIAEAQKHLGKAYSWGGNGPTTFDCSGYTKYVFAKAGISLPRTSGAQYASTTRISESQAKPGDLVFFDYGSGISHVGIYVGNGQMINAQDNGVKYDNIHGSGWGKYLVGFGRV | failed
13 | MSIEPDGTVNRPEENIHLLQLHDSPVMRWLYLSIGMTALFMGILGIFLPILPTTPFILLAAGCFARSSERFHSYLLNHRIAGPIIREWCEYRSVARHVKRWAYLVMALSFGSSILIVSSWWLKGMLALLAMILFTFIWRLPVRDQSR | failed
14 | MASGSMSSYGSGSWTVKQNKAFERALAVYDQDTPDRWHNVARAVGGKTPEEAKRQYDLLVRDIESIENGHVPFPDYKTTTGNSNRGRLRDEEKRMRSMKLQ | failed
15 | MAVEVVYRSSRDPERLFMDKAEADRHDKMLELAERLAEVLHKAVPSLTEQQVEEAGIYMAKNRDVFARAFKSQPDALAELLEGTAAE | not failed
16 | MAQKKGFKYRFYPTDKQKAVLAKVFGHTRYVWNWALELRTDAYYEEGESLSYTDTAKRLTDLKKEKTWLREVSSVALQQKLRDLDQAFQNFFDGRCGYPNFKSKHDKQAARFASNAFTLHGKKLSVAKVPGSLNVRWSRDLPDEAKPTSVTLTKDPAGRYFVSITSAVPEPDPEPTVTDGDGNQKSVGIDLGIADIVVTSDGWKSGNPRHLENDLYRLRKAQRRLSRKEKNGSDGPSENWKKQKRRVAKIHAEIKDKREDFLHKLSRRVVDENQVIALESLSVKGMQQNRSLARPISDTGWSTLVRMIEYKAKEAGRTVVKIDRWFPSTKRCSECGYVTESKPLSVRSWDCPRCDTTHDRDINAAKNIRTAGLAGAFQKANDSGGHSKTRDAFRIERFGANAHGPVNE | failed
17 | MARRKRRNFSKQASEILNEYFYSHLSNPYPSEEAKEELARKCGITVAQVSNWFGNKRIRYKKNIGKAQEEANLYAAKKAAGASP | not failed
18 | MISSMNFWRCRCSKDDAEQSMLYSYNNGFLGFSAKLNSTQAASLAKLNQVITVFKSKSLKLHTTRSWDFLGLAVDNARRTPPPQLAYGSDIVVGIFDTGLFISLKLLLLSILGIWPESESFRETPEAKPIPSSWNGKCVGGEDFDPSVHCNRKLIGARFYLRGFEETYGTIDFTRDPEYRSPRDYLGHGTHTASTAVGSVVRNVSGFFGLGRGTARGGAPLARLAVFKTCWGKDLEGVCTEADILAAFDDAIHDGVHVISASFGYSPPLSPFFESSADIGAFHAAERGISVVFSTGNDGPDPGVVQNVAPWAVSVAASTVDRSFPTRIVIDGSFTLTGQSLISQEITGTLALATTYFNGGVCKWENWMKKLANETIILCFSTLGPVQFIEEAQAAAIRANALALIFAASPTRQLAEEVDMIPTVRVDILHGTRIRNYLARSPTVPMVKIGPSKTVIGETTAPSVAYFSSRGPSSLSPDILKPDITAPGIGILAAWPPRTPPTLLPGDHRSIEWNFQSGTSMSCPHVAGVMALLQSAHPDWSPSAIRSAIMTTAYTRDTSYDLILSGGSMKSTDPFDIGAGHINPLKAMDPGLVYNTRTDDYVLFMCNIGYTDQEIKSMVLHPEPSTTCLPSHSYRTNADFNYPSITIPSLRLTRTIKRTVSNVGPNKNTVYFVDIIRPVGVEVLIWPRILVFSKCQQEHSYYVTFKPTEIFSGRYVFGEIMWTNGLHRVRSPVVVFLSNAGFLASS | failed
19 | MGRKIVFFDIDGTLLDEQKQLPLSTIEAVRRLKQSGVYVAIATGRAPFMFEHVRKQLGIDSFVSFNGQYVVFEGNVLYKQPLRREKVRALTEEAHKNGHPLVFMDAEKMRASIGDHPHIHVSMASLKFAHPPVDPLYYENKDIYQALLFCRAEEEEPYVRNYPEFRFVRWHDVSTDVLPAGGSKAEGIRMMIEKLGIDKKDVYAFGDGLNDIEMLSFVGTGVAMGNAHEEVKRVADFVTKPVDKEGIWYGLKQLQLIR | not failed
20 | MASGLSEIGSTKMFDGYNKRYKHFSETLGCSMTFSIYFPPSASSSHKSPVLYWLSGLTCTDENFIIKSGAQRAASTHGIALVAPDTSPRGLNVEGEADSYDFGVGAGFYLNATQEKWKNWRMYDYVVKELPKLLSENFSQLDTTKASISGHSMGGHGALTIYLRNLDKYKSVSAFAPITNPINCAWGQKAFTNYLGDNKAAWEEYDATCLISKYNNLSATILIDQGENDQFYPDQLLPSKFEEACKKVNAPLLLRLHPGYDHSYYFIATFIEDHISHHAQALEL | failed
21 | MTIKTLQYDDFMLYRERIRDLLVQIYDINFDVSHDYSINESNKKINLLDEYIKTNQAVLIGAVDGEKLVGFIWIYKHEYFGETRMHINQIIVDKEYKRKGIGKRLLEEAEKKAKELGIKVIDLFVSEKNAEAVNFYEKTGFVTERRYLKKILLEHHHHHH | not failed
22 | MKIALIGASGYVGSALLKEALSRGHHVTALVSRPERIAAQANLAAAKVDVQDSAQLAEQLKGFDAVLSAFSGHAQAEQFDYFVKGIRSIIAAAKAAQAPRLLVVGGAGSLEVAPGVQLVDTPEFPEQWKASALGAREALNLLRAETELNWTLLSPSAMLQPGQRTGQFRLGKDQLLVDAEGNSHISVEDYAVAMIDELEKGEHQRSRFTVGYLEHHHHHH | not failed
23 | MRGPAEQPPVTAISADATDADAAWRIMEQTRPDVVIMNAGAEPPMERIDRIGWEAFTTNWNVDVKAALHWVQAALTVPMAPGGLVVLISSGAAVQGSPLSGGYAGAKRAQWFIAKYADGLSAELGLGLRFRVLVPRQMFVGTGVGDTGIGAYAAKAGRTFAEQAATWPNMTPRAFGDTVAELIGKSGLAEAMVYAVRGDTGVTVIE | failed

Reference: a protein production outcome set (Wang et al. 2014)
